The nature of the data set: total protein half-life in vivo (active degradation + dilution); higher = more stable protein.
Setting [1] is: E. coli NCM3722 delta-clpP delta-lon delta-hslV, growth: N-lim chemostat, doubling time 6 h.
The mark [2] stands for this setting: E. coli NCM3722 delta-clpP, growth: N-lim chemostat, doubling time 6 h.
Setting [3] is: E. coli NCM3722 delta-smpB, growth: N-lim chemostat, doubling time 6 h.
Where [4] appears, read: wild type E. coli NCM3722, growth: C-lim chemostat, doubling time 3 h.
Setting [5] is: wild type E. coli NCM3722, growth: C-lim chemostat, doubling time 6 h.
Setting [6] is: wild type E. coli NCM3722, growth: C-lim chemostat, doubling time 12 h.
Setting [7] is: wild type E. coli NCM3722, growth: N-lim chemostat, doubling time 6 h.
Where [8] appears, read: wild type E. coli NCM3722, growth: N-lim chemostat, doubling time 12 h.
Setting [9] is: wild type E. coli NCM3722, growth: P-lim chemostat, doubling time 6 h.
Setting [10] is: wild type E. coli NCM3722, growth: P-lim chemostat, doubling time 12 h.
[11] abbreviates: E. coli NCM3722 delta-hslV, growth: N-lim chemostat, doubling time 6 h.
[12] abbreviates: E. coli NCM3722 delta-lon, growth: N-lim chemostat, doubling time 6 h.

From the supplement of paper PMC11246515 come the findings set out here.

± gives the standard deviation of the averaged measurements.

Take “MSGARLHTLLPELTTRQSVMVVGAAVIDVIADAYALPWRGCDIELKQQSVNVGGCALNIAVALKRLGIEAGNALPLGQGVWAEMIRNRMAKEGLISLIDNAEGDNGWCLALVEPDGERTFMSFSGVENQWNRQWLARLTVAPGSLLYFSGYQLASPCGELLVEWLEELQDVTPFIDFGPRIGDIPDALLARIMACRPLVSLNRQEAEIAAERFALSAEITTLGKQWQEKFAAPLIVRLDKEGAWYFSNDASGCIPAFPTQVVDTIGAGDSHAGGVLAGLASGLPLADAVLLGNAVASWVVGHRGGDCAPTREELLLAHKNV”: the “total protein half-life in vivo” value amounted to 4.46 ± 0.92 h under setting [1]; 3.62 ± 0.076 h under setting [2]; 3.76 ± 0.33 h under setting [3]; 3.02 ± 0.012 h under setting [4]; 4.79 ± 0.53 h under setting [5]; 6.71 ± 3.7 h under setting [6]. In addition, the “total protein half-life in vivo” value reads like this: under setting [7], 3.67 ± 0.096 h; under setting [8], 6.33 ± 1.1 h; under setting [9], 4.76 ± 0.76 h; under setting [10], 11.1 ± 2.4 h.

Consider “MTAFSTLNVLPPAQLTNLNELGYLTMTPVQAAALPAILAGKDVRVQAKTGSGKTAAFGLGLLQQIDASLFQTQALVLCPTRELADQVAGELRRLARFLPNTKILTLCGGQPFGMQRDSLQHAPHIIVATPGRLLDHLQKGTVSLDALNTLVMDEADRMLDMGFSDAIDDVIRFAPASRQTLLFSATWPEAIAAISGRVQRDPLAIEIDSTDALPPIEQQFYETSSKGKIPLLQRLLSLHQPSSCVVFCNTKKDCQAVCDALNEVGQSALSLHGDLEQRDRDQTLVRFANGSARVLVATDVAARGLDIKSLELVVNFELAWDPEVHVHRIGRTARAGNSGLAISFCAPEEAQRANIISDMLQIKLNWQTPPANSSIATLEAEMATLCIDGGKKAKMRPGDVLGALTGDIGLDGADIGKIAVHPAHVYVAVRQAVAHKAWKQLQGGKIKGKTCRVRLLK”, for which the “total protein half-life in vivo” value under setting [1] is 5.81 ± 1.4 h; the “total protein half-life in vivo” value under setting [2] worked out at 2.58 h; the “total protein half-life in vivo” value under setting [5] was 3.78 h; the “total protein half-life in vivo” value under setting [6] stood at 8.81 ± 4.4 h; the “total protein half-life in vivo” value under setting [9] came to 2.59 h.

“MTRLASRFGAANLIRRDRPLTREELFRVVPSVFSEDKHESRSERYTYIPTISLLDSLQREGFQPFFACQTRVRDPGRREHTKHMLRLRREGQITGKQVPEIILLNSHDGTSSYQMLPGLFRAVCQNGLVCGESFGEVRVPHKGDVVSQVIEGAYEVLGIFDRVEEKRDAMQSLLLPPPAQQALAKAALTYRFGEDHQPVTESQILSPRRWQDESNDLWTTYQRIQENLIKGGLSGRNAKGGRSHTRAVRGIDGDVKLNRALWVMAEALLTQLQ”: the “total protein half-life in vivo” value runs as follows: under setting [1], 5.7 ± 0.74 h; under setting [5], 3.1 h; under setting [7], 4.67 h; under setting [9], 3.42 h.

With “MSYPSLFAPLDLGFTTLKNRVLMGSMHTGLEEYPDGAERLAAFYAERARHGVALIVSGGIAPDLTGVGMEGGAMLNDASQIPHHRTITEAVHQEGGKIALQILHTGRYSYQPHLVAPSALQAPINRFVPHELSHEEILQLIDNFARCAQLAREAGYDGVEVMGSEGYLINEFLTLRTNQRSDQWGGDYRNRMRFAVEVVRAVRERVGNDFIIIYRLSMLDLVEDGGTFAETVELAQAIEAAGATIINTGIGWHEARIPTIATPVPRGAFSWVTRKLKGHVSLPLVTTNRINDPQVADDILSRGDADMVSMARPFLADAELLSKAQSGRADEINTCIGCNQACLDQIFVGKVTSCLVNPRACHETKMPILPAVQKKNLAVVGAGPAGLAFAINAAARGHQVTLFDAHSEIGGQFNIAKQIPGKEEFYETLRYYRRMIEVTGVTLKLNHTVTADQLQAFDETILASGIVPRTPPIDGIDHPKVLSYLDVLRDKAPVGNKVAIIGCGGIGFDTAMYLSQPGESTSQNIAGFCNEWGIDSSLQQAGGLSPQGMQIPRSPRQIVMLQRKASKPGQGLGKTTGWIHRTTLLSRGVKMIPGVSYQKIDDDGLHVVINGETQVLAVDNVVICAGQEPNRALAQPLIDSGKTVHLIGGCDVAMELDARRAIAQGTRLALEI”, the “total protein half-life in vivo” value by setting is: under setting [1], 6.33 ± 2.2 h; under setting [2], 3.52 ± 0.043 h; under setting [3], 2.74 ± 0.96 h; under setting [4], 2.93 ± 0.18 h; under setting [5], 4.94 ± 0.13 h; under setting [6], 9.61 ± 2.1 h. The “total protein half-life in vivo” value runs as follows: under setting [9], 5.18 ± 0.79 h; under setting [10], 10.6 ± 0.13 h.

As to “MIIKRTPQAASPLASWLSYLENLHSKTIDLGLERVSLVAARLGVLKPAPFVFTVAGTNGKGTTCRTLESILMAAGYKVGVYSSPHLVRYTERVRVQGQELPESAHTASFAEIESARGDISLTYFEYGTLSALWLFKQAQLDVVILEVGLGGRLDATNIVDADVAVVTSIALDHTDWLGPDRESIGREKAGIFRSEKPAIVGEPEMPSTIADVAQEKGALLQRRGVEWNYSVTDHDWAFSDAHGTLENLPLPLVPQPNAATALAALRASGLEVSENAIRDGIASAILPGRFQIVSESPRVIFDVAHNPHAAEYLTGRMKALPKNGRVLAVIGMLHDKDIAGTLAWLKSVVDDWYCAPLEGPRGATAEQLLEHLGNGKSFDSVAQAWDAAMADAKAEDTVLVCGSFHTVAHVMEVIDARRSGGK”, the “total protein half-life in vivo” value is, setting by setting: under setting [1], 4.62 ± 0.55 h; under setting [2], 4.95 ± 1.1 h; under setting [11], 4.08 ± 0.39 h; under setting [3], 3.813 ± 0.021 h; under setting [4], 3.151 ± 0.024 h; under setting [5], 5.09 ± 0.13 h. Also, the “total protein half-life in vivo” value under setting [6] turned out to be 9.2 ± 1.6 h; the “total protein half-life in vivo” value under setting [7] is 3.807 ± 0.036 h; the “total protein half-life in vivo” value under setting [8] is 6.07 ± 0.99 h; the “total protein half-life in vivo” value under setting [9] came out at 5.34 ± 0.23 h; the “total protein half-life in vivo” value under setting [10] worked out at 9.6 ± 0.66 h.

With “MNLLKSLAAVSSMTMFSRVLGFARDAIVARIFGAGMATDAFFVAFKLPNLLRRIFAEGAFSQAFVPILAEYKSKQGEDATRVFVSYVSGLLTLALAVVTVAGMLAAPWVIMVTAPGFADTADKFALTSQLLKITFPYILLISLASLVGAILNTWNRFSIPAFAPTLLNISMIGFALFAAPYFNPPVLALAWAVTVGGVLQLVYQLPHLKKIGMLVLPRINFHDAGAMRVVKQMGPAILGVSVSQISLIINTIFASFLASGSVSWMYYADRLMEFPSGVLGVALGTILLPSLSKSFASGNHDEYNRLMDWGLRLCFLLALPSAVALGILSGPLTVSLFQYGKFTAFDALMTQRALIAYSVGLIGLIVVKVLAPGFYSRQDIKTPVKIAIVTLILTQLMNLAFIGPLKHAGLSLSIGLAACLNASLLYWQLRKQKIFTPQPGWMAFLLRLVVAVLVMSGVLLGMLHIMPEWSLGTMPWRLLRLMAVVLAGIAAYFAALAVLGFKVKEFARRTV [P0AF16]”, the “total protein half-life in vivo” value is, setting by setting: under setting [1], 6.51 ± 0.41 h; under setting [2], 5.82 ± 0.39 h; under setting [11], 5.87 h; under setting [3], 6.21 ± 0.26 h; under setting [4], 3.36 h; under setting [6], 9.84 h. Moreover, the “total protein half-life in vivo” value was 8.94 ± 1.4 h under setting [8], 5.63 ± 0.54 h under setting [9] and 10.6 ± 0.34 h under setting [10].

For the sequence “MKPTTISLLQKYKQEKKRFATITAYDYSFAKLFADEGLNVMLVGDSLGMTVQGHDSTLPVTVADIAYHTAAVRRGAPNCLLLADLPFMAYATPEQAFENAATVMRAGANMVKIEGGEWLVETVQMLTERAVPVCGHLGLTPQSVNIFGGYKVQGRGDEAGDQLLSDALALEAAGAQLLVLECVPVELAKRITEALAIPVIGIGAGNVTDGQILVMHDAFGITGGHIPKFAKNFLAETGDIRAAVRQYMAEVESGVYPGEEHSFH”, the “total protein half-life in vivo” value under setting [1] turned out to be 6.05 ± 0.05 h; the “total protein half-life in vivo” value under setting [2] is 5.86 ± 0.2 h; the “total protein half-life in vivo” value under setting [11] stood at 6.34 ± 0.95 h; the “total protein half-life in vivo” value under setting [12] was 6.74 ± 0.46 h; the “total protein half-life in vivo” value under setting [3] was 6.04 ± 0.64 h; the “total protein half-life in vivo” value under setting [4] turned out to be 2.96 ± 0.031 h. Also, the “total protein half-life in vivo” value under setting [5] amounted to 6.93 ± 0.31 h; the “total protein half-life in vivo” value under setting [6] amounted to 12.5 ± 2.7 h; the “total protein half-life in vivo” value under setting [7] is 5.51 ± 0.51 h; the “total protein half-life in vivo” value under setting [8] stood at 12.3 ± 2.8 h; the “total protein half-life in vivo” value under setting [9] came out at 6.42 ± 1.1 h.

“MRYIKSITQQKLSFLLAIYIGLFMNGAVFYRRFGSYAHDFTVWKGISAVVELAATVLVTFFLLRLLSLFGRRSWRILASLVVLFSAGASYYMTFLNVVIGYGIIASVMTTDIDLSKEVVGLNFILWLIAVSALPLILIWNNRCRYTLLRQLRTPGQRIRSLAVVVLAGIMVWAPIRLLDIQQKKVERATGVDLPSYGGVVANSYLPSNWLSALGLYAWARVDESSDNNSLLNPAKKFTYQAPQNVDDTYVVFIIGETTRWDHMGIFGYERNTTPKLAQEKNLAAFRGYSCDTATKLSLRCMFVRQGGAEDNPQRTLKEQNIFAVLKQLGFSSDLYAMQSEMWFYSNTMADNIAYREQIGAEPRNRGKPVDDMLLVDEMQQSLGRNPDGKHLIILHTKGSHFNYTQRYPRSFAQWKPECIGVDSGCTKAQMINSYDNSVTYVDHFISSVIDQVRDKKAIVFYAADHGESINEREHLHGTPRELAPPEQFRVPMMVWMSDKYLENPANAQAFAQLKKEADMKVPRRHVELYDTIMGCLGYTSPDGGINENNNWCHIPQAKEAAAN”: the “total protein half-life in vivo” value is, setting by setting: under setting [1], 4 ± 0.3 h; under setting [11], 4.35 ± 1.7 h; under setting [12], 6.45 ± 0.89 h; under setting [3], 3.61 ± 0.3 h; under setting [4], 2.87 ± 0.19 h; under setting [5], 4.84 ± 0.023 h. The “total protein half-life in vivo” value by setting is: under setting [6], 8.037 ± 0.012 h; under setting [7], 5.66 ± 0.37 h; under setting [8], 8.75 ± 0.59 h; under setting [9], 4.14 ± 1.1 h; under setting [10], 6.76 ± 1.3 h.

Turning to “MIWKRHLTLDELNATSDNTMVAHLGIVYTRLGDDVLEAEMPVDTRTHQPFGLLHGGASAALAETLGSMAGFMMTRDGQCVVGTELNATHHRPVSEGKVRGVCQPLHLGRQNQSWEIVVFDEQGRRCCTCRLGTAVLG [P0A8Y8]”, the “total protein half-life in vivo” value under setting [1] came to 6.69 h.

As for “MNRTDELRTARIESLVTPAELALRYPVTPGVATHVTDSRRRIEKILNGEDKRLLVIIGPCSIHDLTAAMEYATRLQSLRNQYQSRLEIVMRTYFEKPRTVVGWKGLISDPDLNGSYRVNHGLELARKLLLQVNELGVPTATEFLDMVTGQFIADLISWGAIGARTTESQIHREMASALSCPVGFKNGTDGNTRIAVDAIRAARASHMFLSPDKNGQMTIYQTSGNPYGHIIMRGGKKPNYHADDIAAACDTLHEFDLPEHLVVDFSHGNCQKQHRRQLEVCEDICQQIRNGSTAIAGIMAESFLREGTQKIVGSQPLTYGQSITDPCLGWEDTERLVEKLASAVDTRF”, the “total protein half-life in vivo” value is, setting by setting: under setting [1], 5.25 ± 0.74 h; under setting [11], 4.47 ± 0.041 h; under setting [12], 4.88 ± 0.15 h; under setting [3], 4.62 ± 0.51 h; under setting [4], 3.089 ± 0.021 h; under setting [5], 6.53 ± 1.7 h. Further, the “total protein half-life in vivo” value runs as follows: under setting [6], 10.3 ± 0.59 h; under setting [7], 5.28 ± 0.75 h; under setting [8], 7.35 ± 0.6 h; under setting [9], 6.03 ± 0.34 h; under setting [10], 11.8 ± 0.39 h.
